For one test, the system named is HEK293T/16 cells. Kind of test: SEAP reporter-based surrogate killing assay (basal activity and AP1903 IC50). The format is cell-based, human. The conditions noted are these: AP1903-independent SEAP activity, vs wild type. The method, then: FIG. 45 provides a schematic of an analysis of SEAP assays. […] of the mixture was seeded onto each well of a 96-well plate. […] For the assay, 4-methylumbelliferyl phosphate substrate was hydrolyzed by SEAP to 4-methylumbelliferon, a metabolite that can be excited with 364 nm and detected with an emission filter of 448 nm. Since SEAP is used as a marker for cell viability, reduced SEAP reading corresponds with increased icaspase-9 activities.
Early passage HEK293T/16 cells (ATCC, Manassas, Va.) were maintained in IMDM, GlutaMAX™ (Life Technologies, Carlsbad, Calif.) supplemented with 10% FBS, 100 U/mL penicillin, and 100 […] until transfection in a humidified, 37° C., 5% CO2/95% air atmosphere. Cells in logarithmic-phase growth were transiently transfected with 800 ng to 2 μg of expression plasmid encoding iCasp9 mutants and 500 ng of an expression plasmid encoding SRα promoter driven SEAP per million cells in 15-mL conical tubes. […] GeneJammer® Transfection Reagent at a ratio of 3 μl per ug of plasmid DNA was used to transiently transfect HEK293T/16 cells in the absence of antibiotics. 100 μl or 2 mL of the transfection mixture was added to each well in 96-well or 6-well plate, respectively.
Briefly, after 65° C. heat denaturation for 45 minutes to reduce background caused by endogenous (and serum-derived) alkaline phosphatases that are sensitive to heat, 5 μl of supernatants was added to 95 μl of PBS and added to 100 μl of substrate buffer, containing 1 μl of 100 mM 4-methylumbelliferyl phosphate (4-MUP; Sigma, St. Louis, Mo.) re-suspended in 2 M diethanolamine. Hydrolysis of 4-MUP by SEAP produces a fluorescent […] with excitation/emission (355/460 nm), which can be easily measured. Assays were performed in black opaque 96-well plates to minimize fluorescence leakage between wells (FIG. 45).

The test system of another test is Activated T cells. Kind of test: Control of T cell proliferation in vitro over 10 days with AP1903. The test is classed as cell-based, human. Particulars: AP1903 on days 0 and 4, 10 days.

Consider 15 molecules from patent publication US20150328292A1, “CASPASE POLYPEPTIDES HAVING MODIFIED ACTIVITY AND USES THEREOF” (BELLICUM PHARMACEUTICALS, INC., priority 2014, published 2015).

Numbering of substitutions follows the chain as printed. Names may count otherwise. “Also recorded” adds a separate entry of the source.

B1: P318A: chimeric modified caspase-9 polypeptide variant (protein, UniProt P55211 1-416, looked up, variant P318A)
chain: MDEADRRLLRRCRLRLVEELQVDQLWDALLSRELFRPHMIEDIQRAGSGSRRDQARQLIIDLETRGSQALPLFISCLEDTGQDMLASFLRTNRQAAKLSKPTLENLTPVVLRPEIRKPEVLRPETPRPVDIGSGGFGDVGALESLRGNADLAYILSMEPCGHCLIINNVNFCRESGLRTRTGSNIDCEKLRRRFSSLHFMVEVKGDLTAKKMVLALLELAQQDHGALDCCVVVILSHGCQASHLQFPGAVYGTDGCPVSVEKIVNIFNGTSCPSLGGKPKLFFIQACGGEQKDHGFEVASTSPEDESPGSNPEPDATAFQEGLRTFDQLDAISSLPTPSDIFVSYSTFPGFVSWRDPKSGSWYVETLDDIFEQWAHSEDLQSLLLRVANAVSVKGIYKQMPGCFNFLRKKLFFKTS
modifications: chimeric, fused to FKBP12v36
notes: chimeric modified caspase-9 polypeptide variant
Consider B1, for which, in the test with HEK293T/16 cells, the “basal activity / basal signaling (in words)” value was “no effect”.

B2: F319W: chimeric modified caspase-9 polypeptide variant (protein, UniProt P55211 1-416, looked up, variant F319W)
chain: B1 chain with A318P, F319W
modifications: chimeric, fused to FKBP12v36
notes: as for B1
Take B2: the “basal activity / basal signaling (in words)” value in the test on HEK293T/16 cells is listed as “lower basal activity”.

B3: F319A: chimeric modified caspase-9 polypeptide variant (protein, UniProt P55211 1-416, looked up, variant F319A)
chain: B1 chain with A318P, F319A
modifications: chimeric, fused to FKBP12v36
notes: as for B1
As for B3, the “basal activity / basal signaling (in words)” value in the test with HEK293T/16 cells is “no effect”.

B4: T317S: chimeric modified caspase-9 polypeptide variant (protein)
chain: VDGFGDVGALESLRGNADLAYILSMEPCGHCLIINNVNFCRESGLRTRTGSNIDCEKLRRRFSSLHFMVEVKGDLTAKKMVLALLELARQDHGALDCCVVVILSHGCQASHLQFPGAVYGTDGCPVSVEKIVNIFNGTSCPSLGGKPKLFFIQACGGEQKDHGFEVASTSPEDESPGSNPEPDASPFQEGLRTFDQLDAISSLPTPSDIFVSYSTFPGFVSWRDPKSGSWYVETLDDIFEQWAHSEDLQSLLLRVANAVSVKGIYKQMPGCFNFLRKKLFFKTSASRA
B4: the “basal activity / basal signaling (in words)” value in the test with HEK293T/16 cells was “lower basal activity; also recorded: reduce basal activity; also recorded: decrease in basal activity”.

B5: D330N: chimeric modified caspase-9 polypeptide variant (protein)
chain: B4 chain with S185T, D198N
In the case of B5, the “basal activity / basal signaling (in words)” value in the test on HEK293T/16 cells is on record as “less basal activity than wild type caspase-9”.

B6: T317A: chimeric modified caspase-9 polypeptide variant (protein)
chain: B4 chain with S185A
Consider B6, for which, in the test on HEK293T/16 cells, the “basal activity / basal signaling (in words)” value was “lower basal activity; also recorded: reduce basal activity; also recorded: decrease in basal activity”.

B7: F404Y: chimeric modified caspase-9 polypeptide variant (protein)
chain: B4 chain with S185T, F272Y
On to B7, for which the “basal activity / basal signaling (in words)” value in the test on HEK293T/16 cells is “lower basal signaling than WT”. In addition, the “T cell proliferation and survival” value in the test on Activated T cells is reported as “indistinguishable from wild type caspase-9 polypeptide or D330A”.

B8: D330S: chimeric modified caspase-9 polypeptide variant (protein)
chain: B4 chain with S185T, D198S
With B8, in the test on HEK293T/16 cells, the “basal activity / basal signaling (in words)” value was “less basal activity than wild type caspase-9; also recorded: statistically lower basal signaling”.

B9: S183A: chimeric modified caspase-9 polypeptide variant (protein)
chain: B4 chain with S51A, S185T
On to B9, for which, in the test on HEK293T/16 cells, the “basal activity / basal signaling (in words)” value is reported as “lower basal activity”.

B10: D330V: chimeric modified caspase-9 polypeptide variant (protein)
chain: B4 chain with S185T, D198V
As to B10, the “basal activity / basal signaling (in words)” value in the test on HEK293T/16 cells is recorded as “less basal activity than wild type caspase-9”.

B11: S196D: chimeric modified caspase-9 polypeptide variant (protein)
chain: B4 chain with S64D, S185T
As for B11, the “basal activity / basal signaling (in words)” value in the test on HEK293T/16 cells is “lower basal activity”.

B12: A316G: chimeric modified caspase-9 polypeptide variant (protein)
chain: B4 chain with A184G, S185T
As for B12, the “basal activity / basal signaling (in words)” value in the test with HEK293T/16 cells is “lower basal activity”.

B13: F406T: chimeric modified caspase-9 polypeptide variant (protein)
chain: B4 chain with S185T, F274T
As for B13, in the test with HEK293T/16 cells, the “basal activity / basal signaling (in words)” value is “lower basal signaling than WT”.

B14: F404W: chimeric modified caspase-9 polypeptide variant (protein)
chain: B4 chain with S185T, F272W
Regarding B14, in the test on HEK293T/16 cells, the “basal activity / basal signaling (in words)” value is given as “lower basal signaling than WT”.

B15: D330G: chimeric modified caspase-9 polypeptide variant (protein)
chain: B4 chain with S185T, D198G
For B15, in the test on HEK293T/16 cells, the “basal activity / basal signaling (in words)” value is listed as “less basal activity than wild type caspase-9”.
